The record followed here is PMC7736783 (Nucleic Acids Research, 2020).

The target in this data set is MTA1 (BAH-ELM2-SANT-ZnF);HDAC1;MBD2 (Homo sapiens?;Homo sapiens?;Homo …, UniProt Q13330;Q13547;Q9UBB5 1-453;1-482;145-411, ||). The experiment in a line: EMSA; 1 uM DNA with 1- to 10-fold excess of complex; single bound species; EMSA: 20 mM HEPES pH 7.0, 75 mM potassium acetate, 2 mM DTT, 20 min on ice; 5% acrylamide gel in 0.5x TB. To be noted: protein: recombinant;recombinant;recombinant; tags: His10-Flag3 N-terminal, removed by TEV;none;none; chain copies: 2;2;1; label: none (ethidium bromide stain); blunt (annealed complementary oligonucleotides). For orientation: Mobility shift assays separate free from complexed probe on a gel.
Sequence of MTA1 (BAH-ELM2-SANT-ZnF);HDAC1;MBD2 (Q13330 1-453, chain 1 of 3): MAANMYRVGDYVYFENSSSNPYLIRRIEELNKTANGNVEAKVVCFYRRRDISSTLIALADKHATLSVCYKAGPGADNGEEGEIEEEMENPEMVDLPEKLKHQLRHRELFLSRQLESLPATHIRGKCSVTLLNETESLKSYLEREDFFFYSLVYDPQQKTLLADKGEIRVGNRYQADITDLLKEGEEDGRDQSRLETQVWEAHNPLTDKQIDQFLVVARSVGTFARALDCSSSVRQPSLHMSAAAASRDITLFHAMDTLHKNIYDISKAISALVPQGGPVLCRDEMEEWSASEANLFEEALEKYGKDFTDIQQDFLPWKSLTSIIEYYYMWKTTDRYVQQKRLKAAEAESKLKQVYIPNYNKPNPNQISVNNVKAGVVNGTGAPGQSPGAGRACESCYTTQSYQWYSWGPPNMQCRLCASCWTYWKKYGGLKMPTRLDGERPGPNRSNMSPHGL
Sequence of MTA1 (BAH-ELM2-SANT-ZnF);HDAC1;MBD2 (Q13547 whole entry, chain 2 of 3): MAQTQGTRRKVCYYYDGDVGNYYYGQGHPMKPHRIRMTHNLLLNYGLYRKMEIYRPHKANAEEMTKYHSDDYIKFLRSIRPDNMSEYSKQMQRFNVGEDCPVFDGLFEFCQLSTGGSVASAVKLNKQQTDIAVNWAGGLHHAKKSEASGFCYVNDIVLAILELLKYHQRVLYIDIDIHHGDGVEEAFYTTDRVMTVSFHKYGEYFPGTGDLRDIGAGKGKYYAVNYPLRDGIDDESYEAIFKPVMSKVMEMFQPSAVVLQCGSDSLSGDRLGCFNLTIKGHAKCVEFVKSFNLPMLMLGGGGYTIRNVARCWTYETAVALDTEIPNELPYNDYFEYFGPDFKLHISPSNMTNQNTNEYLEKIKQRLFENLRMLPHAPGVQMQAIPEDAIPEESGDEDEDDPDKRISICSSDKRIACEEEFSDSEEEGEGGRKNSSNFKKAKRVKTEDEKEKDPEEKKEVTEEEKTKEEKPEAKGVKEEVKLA
Sequence of MTA1 (BAH-ELM2-SANT-ZnF);HDAC1;MBD2 (Q9UBB5 145-411, chain 3 of 3): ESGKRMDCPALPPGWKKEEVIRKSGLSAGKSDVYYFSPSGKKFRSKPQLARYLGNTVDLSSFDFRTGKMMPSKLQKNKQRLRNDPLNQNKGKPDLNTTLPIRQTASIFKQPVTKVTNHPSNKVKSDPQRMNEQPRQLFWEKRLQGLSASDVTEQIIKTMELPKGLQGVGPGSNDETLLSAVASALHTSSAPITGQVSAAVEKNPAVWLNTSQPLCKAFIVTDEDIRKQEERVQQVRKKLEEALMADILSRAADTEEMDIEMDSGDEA

B1: methylated DNA duplex 15 nt (dsDNA)
DNA 1: GGAATCGGCTCATGC
DNA 2: GCATGAGCCGATTCC
modifications: 5-methylcytosine at C6 of strand 1 (printed mC in CpG); methylation of the complementary strand not stated
As to B1, the binding result is listed as “binds”.
